Results from patent publication US20260274985A1 (MYTHIC THERAPEUTICS, published 2026).
Numbering of substitutions follows the chain as printed.

T1: Human TROP2 Protein, His Tag (Acro Biosystems) (human, UniProt P09758 27-274)
T1 construct: Bought protein; also called TACSTD2; not shown: His tag
T1 sequence: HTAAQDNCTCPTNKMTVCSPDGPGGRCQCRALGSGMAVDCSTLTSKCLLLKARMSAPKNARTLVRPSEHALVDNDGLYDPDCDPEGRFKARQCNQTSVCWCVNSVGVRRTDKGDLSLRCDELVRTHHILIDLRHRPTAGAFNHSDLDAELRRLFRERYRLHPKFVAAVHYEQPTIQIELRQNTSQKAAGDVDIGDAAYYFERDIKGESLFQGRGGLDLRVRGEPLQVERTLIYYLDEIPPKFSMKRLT

T2: Human TROP2 Protein, His Tag (Acro Biosystems) (human, UniProt P09758 27-274)
T2 construct: Bought protein; not shown: His tag
T2 sequence (looked up): T1 sequence

B1: MYT12410 (hu7E6SVG variant, HCV substitutions at 33, 56) (antibody, V domains shown)
VH: QVQLQESGPGLVKPSETLSLTCTVSGGSISSYHVHWIRQPPGKGLEWIGVIWTSGHTDYNSALMGRVTISVDTSKNQFSLKLSSVTAADTAVYYCARDGDYDRYTMDYWGQGTLVTVSS
VL: DIVMTQSPDSLAVSLGERATINCRASKSVSTSGYSYMHWYQQKPGQPPKLLIYLASNLESGVPDRFSGSGSGTDFTLTISSLQAEDVAVYYCQHSRELPYTFGQGTKLEIK
B2: MYT12411 (hu7E6SVG variant, HCV substitutions at 33, 102) (antibody, V domains shown)
VH: B1 VH with H56V, D102H
VL: B1 VL
B3: MYT12414 (hu7E6SVG variant, HCV substitutions at 34, 51) (antibody, V domains shown)
VH: B1 VH with H33G, V34H, I51H, H56V
VL: B1 VL
B4: MYT12415 (hu7E6SVG variant, HCV substitutions at 34, 56) (antibody, V domains shown)
VH: B1 VH with H33G, V34H
VL: B1 VL
B5: MYT12418 (hu7E6SVG variant, HCV substitutions at 34, 106) (antibody, V domains shown)
VH: B1 VH with H33G, V34H, H56V, M106H
VL: B1 VL
B6: MYT12419 (hu7E6SVG variant, HCV substitutions at 51, 56) (antibody, V domains shown)
VH: B1 VH with H33G, I51H
VL: B1 VL
B7: MYT12422 (hu7E6SVG variant, HCV substitutions at 51, 106) (antibody, V domains shown)
VH: B1 VH with H33G, I51H, H56V, M106H
VL: B1 VL
B8: MYT12423 (hu7E6SVG variant, HCV substitutions at 56, 102) (antibody, V domains shown)
VH: B1 VH with H33G, D102H
VL: B1 VL
B9: MYT12426 (hu7E6SVG variant, HCV substitutions at 102, 103) (antibody, V domains shown)
VH: B1 VH with H33G, H56V, D102H, R103H
VL: B1 VL
B10: MYT12427 (hu7E6SVG variant, HCV substitutions at 102, 106) (antibody, V domains shown)
VH: B1 VH with H33G, H56V, D102H, M106H
VL: B1 VL
B11: MYT12428 (hu7E6SVG variant, HCV substitutions at 103, 106) (antibody, V domains shown)
VH: B1 VH with H33G, H56V, R103H, M106H
VL: B1 VL
B12: MYT12430 (hu7E6SVG variant, HCV substitutions at 33, 51, 103) (antibody, V domains shown)
VH: B1 VH with I51H, H56V, R103H
VL: B1 VL
B13: MYT12432 (hu7E6SVG variant, HCV substitutions at 33, 56, 103) (antibody, V domains shown)
VH: B1 VH with R103H
VL: B1 VL
B14: MYT12435 (hu7E6SVG variant, HCV substitutions at 51, 56, 103) (antibody, V domains shown)
VH: B1 VH with H33G, I51H, R103H
VL: B1 VL
B15: MYT12436 (hu7E6SVG variant, HCV substitutions at 51, 56, 106) (antibody, V domains shown)
VH: B1 VH with H33G, I51H, M106H
VL: B1 VL
B16: MYT12437 (hu7E6SVG variant, HCV substitutions at 51, 103, 106) (antibody, V domains shown)
VH: B1 VH with H33G, I51H, H56V, R103H, M106H
VL: B1 VL
B17: MYT12438 (hu7E6SVG variant, HCV substitutions at 56, 103, 106) (antibody, V domains shown)
VH: B1 VH with H33G, R103H, M106H
VL: B1 VL
B18: MYT11592 (antibody, V domains shown)
VH: QVQLQQSGSELKKPGASVKVSCKASGYTFTNYGMNWVKQAPGQGLKWMGWINTYTGEPTYTDDFHGRFAFSLDTSVSTAYLQISSLKADDTAVYFCARGGFGSSYWYFDVWGQGSLVTVSS
VL: DIQLTQSPSSLSASVGDRVSITCKASQDVSIAVAWYQQKPGKAPKLLIYSASYRYTGVPDRFSGSGSGTDFTLTISSLQPEDFAVYYCQQHYITPLTFGAGTKVEIK
B19: MYT11593 (antibody, V domains shown)
VH: B18 VH with H65K, G66H
VL: B18 VL
B20: MYT11594 (antibody, V domains shown)
VH: B18 VH with H65K, A97H
VL: B18 VL
notes: Sacituzumab variant, His at HCV position 97 (H3 01)
B21: MYT11595 (antibody, V domains shown)
VH: B18 VH with H65K, R98H
VL: B18 VL
notes: Sacituzumab variant, His at HCV position 98 (H3 02)
B22: MYT11596 (antibody, V domains shown)
VH: B18 VH with H65K, G99H
VL: B18 VL
B23: MYT11598 (antibody, V domains shown)
VH: B18 VH with H65K, F101H
VL: B18 VL
notes: Sacituzumab variant, His at HCV position 101 (H3 05)
B24: MYT11601 (antibody, V domains shown)
VH: B18 VH with H65K, S104H
VL: B18 VL
notes: Sacituzumab variant, His at HCV position 104 (H3 08)
B25: MYT11602 (antibody, V domains shown)
VH: B18 VH with H65K, Y105H
VL: B18 VL
B26: MYT11605 (antibody, V domains shown)
VH: B18 VH with H65K, F108H
VL: B18 VL
B27: MYT11607 (antibody, V domains shown)
VH: B18 VH with H65K, V110H
VL: B18 VL
notes: Sacituzumab variant, His at HCV position 110 (H3 14)
B28: MYT11608 (antibody, V domains shown)
VH: B18 VH with H65K
VL: B18 VL with K24H
notes: Sacituzumab variant, His at LCV position 24 (L1 01)
B29: MYT11609 (antibody, V domains shown)
VH: B18 VH with H65K
VL: B18 VL with A25H
notes: Sacituzumab variant, His at LCV position 25 (L1 02)
B30: MYT11610 (antibody, V domains shown)
VH: B18 VH with H65K
VL: B18 VL with S26H
notes: Sacituzumab variant, His at LCV position 26 (L1 03)
B31: MYT11611 (antibody, V domains shown)
VH: B18 VH with H65K
VL: B18 VL with Q27H
notes: Sacituzumab variant, His at LCV position 27 (L1 04)
B32: MYT11612 (antibody, V domains shown)
VH: B18 VH with H65K
VL: B18 VL with D28H
notes: Sacituzumab variant, His at LCV position 28 (L1 05)
B33: MYT11613 (antibody, V domains shown)
VH: B18 VH with H65K
VL: B18 VL with V29H
notes: Sacituzumab variant, His at LCV position 29 (L1 06)
B34: MYT11615 (antibody, V domains shown)
VH: B18 VH with H65K
VL: B18 VL with I31H
notes: Sacituzumab variant, His at LCV position 31 (L1 08)
B35: MYT11617 (antibody, V domains shown)
VH: B18 VH with H65K
VL: B18 VL with V33H
notes: Sacituzumab variant, His at LCV position 33 (L1 10)
B36: MYT11620 (antibody, V domains shown)
VH: B18 VH with H65K
VL: B18 VL with A51H
notes: Sacituzumab variant, His at LCV position 51 (L2 02)
B37: MYT11621 (antibody, V domains shown)
VH: B18 VH with H65K
VL: B18 VL with S52H
notes: Sacituzumab variant, His at LCV position 52 (L2 03)

Biological target: T1, Human TROP2 Protein, His Tag (Acro …)
Experiment: BLI (Octet)

Binder	binding result
B1	binds
B2	binds
B3	binds
B4	binds
B5	binds
B6	binds
B7	binds
B8	binds
B9	binds
B10	binds
B11	binds
B12	binds
B13	binds
B14	binds
B15	binds
B16	binds
B17	binds

Biological target: T2, Human TROP2 Protein, His Tag (Acro …)
Experiment: BLI (Octet)
Description: After allowing for four days of protein expression, cell culture supernatants were collected, quantified by SDS-PAGE analysis (DNS), and the pH dependence of the variant was evaluated using biolayer interferometry (BLI) on an Octet RED 96e instrument. Briefly, cell culture supernatants were diluted based on qualitative expression level of the variant determined by visual examination of SDS-PAGE gels, 5 μL of cell culture supernatant was diluted into 195 μL of 1×PBST, pH 7.4 for high expressors, 25 μL of cell culture supernatant was diluted into 175 μL of 1×PBST, pH 7.4 for medium expressors and 100 μL of cell culture supernatant was diluted into 100 μL of 1×PBST, pH 7.4 for low expressors for loading onto the sensor tips. The resulting diluted supernatants were then captured on an anti-human Fc sensor (Forte Bio). A baseline was established using 1×PBST (50 mM Potassium Phosphate Buffer+150 mM NaCl+0.05% Tween 20) pH 7.4, and the sensor was associated with 50 nM of TROP2 (Human TROP2 Protein, His Tag, Acro Biosystems) in 1×PBST pH 7.4 for 120 sec to generate an association curve. In the dissociation phase, the antibody-antigen complex on the sensor was exposed to 1×PBST pH 7.4 or pH 5.4, for 300 sec. Association and dissociation phase curves were examined for the starting ABPC antibody (with no substitutions) and each corresponding antibody variant at pH 5.4 and pH 7.4 to inform on two criteria: a) enhanced dissociation (i.e., higher koff values) at pH 5.4 due to histidine or alanine substitution compared to the starting ABPC, (with no substitutions), and b) reduced dissociation at pH 7.4 (i.e., lower koff values) compared to pH 5.4 in the antibody variant itself and with the starting ABPC (with no substitutions). […] It was also noted that while some mutations obliterated TROP2 binding, others were tolerated with little or n change in TROP2 binding kinetics.

Binder	binding result
B18	binds
B19	binds
B20	binds
B21	binds
B22	binds
B23	binds
B24	binds
B25	binds
B26	binds
B27	binds
B28	binds
B29	binds
B30	binds
B31	binds
B32	binds
B33	binds
B34	binds
B35	binds
B36	binds
B37	binds
